Experimental findings from paper PMC10850085 (Nature Communications, 2024) are described below.

Assay [1] has as its target murine TpoR ectodomain, monomeric (TpoR_(1-479)) (mouse) (UniProt Q08351).
Assay [2] shares this target. The experiment in a line: SPR; high concentrations of the Tpo F162E mutant, up to 10 µM; which TpoR form and which partner was immobilised is not stated. On the technique in general: In SPR one partner is held on a chip, and binding of the other changes the refractive index at the surface.
The target of assay [3] is T1, murine TpoR ectodomain, monomeric (TpoR_(1-479)) (mouse, UniProt Q08351 26-479, N-linked glycans at N117, N178, N349; tryptophan mannosylation (W465, W468)).
T1 construct: signal peptide in the construct; Thrombopoietin receptor (c-Mpl), mouse, residues 1-479, followed by a TEV cleavage site and the Fc domain of hIgG1; Eluted from Protein G resin by TEV cleavage; residues of the TEV site may remain at the C-terminus; also called murine TpoR (monomeric); source: Expi293F cells, transiently transfected, secreted; purified (Protein G Sepharose, TEV elution, Superdex …)
T1 sequence (looked up): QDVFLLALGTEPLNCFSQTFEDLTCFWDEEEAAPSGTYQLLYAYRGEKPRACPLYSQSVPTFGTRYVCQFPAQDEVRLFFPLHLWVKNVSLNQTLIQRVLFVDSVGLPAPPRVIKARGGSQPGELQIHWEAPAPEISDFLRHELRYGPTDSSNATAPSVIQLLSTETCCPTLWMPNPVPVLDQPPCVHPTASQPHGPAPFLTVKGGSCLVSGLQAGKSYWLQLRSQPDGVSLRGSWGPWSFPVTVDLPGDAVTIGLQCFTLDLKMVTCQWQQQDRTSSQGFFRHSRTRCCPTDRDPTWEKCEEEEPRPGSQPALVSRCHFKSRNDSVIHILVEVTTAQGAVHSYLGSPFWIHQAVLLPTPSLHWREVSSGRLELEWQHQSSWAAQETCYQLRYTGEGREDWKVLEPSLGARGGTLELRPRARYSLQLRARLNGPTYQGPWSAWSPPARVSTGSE
Briefly: SPR; TpoR (monomeric, dimeric or mutants) as analyte over N-terminally biotinylated romiplostim peptides on streptavidin chips; HBS-EP; two-fold dilution series, highest 100 nM. To be noted: both partners purified.

Assay [4] addresses T2, murine TpoR ectodomain, monomeric (TpoR_(1-479)) (mouse, UniProt Q08351 26-479, N-linked glycans at N117, N178, N349; tryptophan mannosylation (W465, W468)).
T2 chain: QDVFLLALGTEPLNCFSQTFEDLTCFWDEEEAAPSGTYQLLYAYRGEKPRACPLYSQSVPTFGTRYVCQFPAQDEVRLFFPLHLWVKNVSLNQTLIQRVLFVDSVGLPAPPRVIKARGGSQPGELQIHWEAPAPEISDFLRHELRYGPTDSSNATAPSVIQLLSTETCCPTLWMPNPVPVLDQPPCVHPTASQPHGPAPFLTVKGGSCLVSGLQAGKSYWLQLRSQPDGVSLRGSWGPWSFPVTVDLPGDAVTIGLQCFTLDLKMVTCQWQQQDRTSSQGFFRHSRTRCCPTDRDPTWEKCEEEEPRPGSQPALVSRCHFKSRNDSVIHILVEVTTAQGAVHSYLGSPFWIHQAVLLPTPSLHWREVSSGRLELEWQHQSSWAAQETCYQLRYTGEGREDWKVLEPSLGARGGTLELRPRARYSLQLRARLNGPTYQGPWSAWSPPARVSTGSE
The experiment in a line: SPR; TpoR over immobilised romiplostim peptide.

In assay [5] the target is T2, murine TpoR ectodomain, monomeric …. Briefly: SPR; TpoR over immobilised romiplostim peptide.

In general, Kd refers to a measure of binding affinity in units of concentration. By koff is commonly meant a measure of how fast the partners let go of each other. Higher therefore signals a short-lived complex.

No end group written: not given here. *: point of attachment. Biotin = O=C1N[C@H]2[C@H](CS[C@H]2CCCCC(=O)*)N1

In assay [1], “murine Tpo D29Y (site II mutant) (from UniProt P40226 22-356) (ligand)” gave an ability to induce differentiation of M1(TpoR) cells, fold decrease relative to the WT of 100 fold. Molecule “murine Tpo F162E (site I mutant) (from UniProt P40226 22-356) (ligand)” had a Kd in assay [2] greater than 10000 nM. With “murine Tpo D29E (site II mutant) (from UniProt P40226 22-356) (ligand)”, in assay [1], the ability to induce differentiation of M1(TpoR) cells, fold decrease relative to the WT was 100 fold.

B1: peptide version of romiplostim (two copies of IEGPTLRQWLAARA connected by a GG linker) (peptide)
peptide: Biotin-IEGPTLRQWLAARAGGIEGPTLRQWLAARA
notes: two copies of the TpoR agonist peptide joined by GG; Not the Fc fusion drug itself; The biotin is stated for the peptides coupled to streptavidin chips; also called romiplostim peptide; dimeric romiplostim peptide; source: synthetic peptide
With B1, the binding result in assay [3] is given as “binds”. Also, the koff in assay [4] was determined as 0.017 s⁻¹. In assay [5], this molecule displayed a Kd of 71 nM.

B2: monomeric version of the romiplostim peptide (peptide)
peptide: Biotin-IEGPTLRQWLAARA
notes: TpoR agonist peptide motif of romiplostim; also called monomeric-romiplostim; monomeric version of the peptide; source: synthetic peptide
Turning to B2, in assay [3], the binding result is recorded as “binds”.
